Experiment [1] deals with T1, Cynomolgous B7-H3 on cells (cynomolgus).
T1 construct: whole, on cells; also called cyno B7-H3; cyB7-H3
Nature of the experiment: FACS, 3T12 transfectants.

The target in experiment [2] is T2, Human full length B7-H3 (human, UniProt Q5ZPR3 29-534).
T2 construct: on 3T12 transfectants, NCI-H1650 and other cells; also called huB7-H3; hu B7-H3
T2 sequence: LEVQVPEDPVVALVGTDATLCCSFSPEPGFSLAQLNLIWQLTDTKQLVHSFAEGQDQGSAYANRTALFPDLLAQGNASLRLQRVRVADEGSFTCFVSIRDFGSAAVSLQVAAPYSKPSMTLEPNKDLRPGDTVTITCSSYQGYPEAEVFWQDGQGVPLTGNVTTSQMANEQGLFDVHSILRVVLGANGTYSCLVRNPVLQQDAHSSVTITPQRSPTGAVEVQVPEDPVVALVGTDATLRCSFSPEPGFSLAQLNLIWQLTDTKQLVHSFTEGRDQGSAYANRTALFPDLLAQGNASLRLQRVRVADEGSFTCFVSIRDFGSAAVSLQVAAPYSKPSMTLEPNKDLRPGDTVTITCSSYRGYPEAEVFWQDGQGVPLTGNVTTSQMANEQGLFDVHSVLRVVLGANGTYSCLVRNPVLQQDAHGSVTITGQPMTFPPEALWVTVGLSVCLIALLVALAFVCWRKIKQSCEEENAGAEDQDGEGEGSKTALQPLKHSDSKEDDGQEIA
Nature of the experiment: FACS, 3T12 transfectants.

Experiment [3] has as its target T3, hB7-H3 (ELISA antigen of Tables 17 and 20) (human, UniProt Q5ZPR3 29-466, limits assumed).
T3 sequence: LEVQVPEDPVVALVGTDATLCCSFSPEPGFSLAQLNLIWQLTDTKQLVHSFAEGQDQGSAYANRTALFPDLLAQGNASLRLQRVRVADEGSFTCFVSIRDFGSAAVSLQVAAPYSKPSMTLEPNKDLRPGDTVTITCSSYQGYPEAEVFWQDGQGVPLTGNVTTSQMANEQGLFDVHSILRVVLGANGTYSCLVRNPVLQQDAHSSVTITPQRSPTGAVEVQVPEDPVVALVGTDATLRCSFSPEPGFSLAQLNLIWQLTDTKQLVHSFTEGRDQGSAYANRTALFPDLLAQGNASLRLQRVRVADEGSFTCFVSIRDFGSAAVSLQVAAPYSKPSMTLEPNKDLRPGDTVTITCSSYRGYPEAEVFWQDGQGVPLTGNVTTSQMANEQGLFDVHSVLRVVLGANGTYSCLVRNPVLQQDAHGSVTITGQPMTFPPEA
Nature of the experiment: ELISA.

Experiment [4] addresses T1, Cynomolgous B7-H3 on cells. Nature of the experiment: FACS. Here is the method:
(§1) Cells were harvested from flasks when approximately 80% confluent using Gibco® Cell Dissociation Buffer. Cells were washed once in PBS/1% FBS (FACS buffer) then resuspended at 2.5×10⁶ cells/mL in FACS buffer. 100 μL of cells/well were added to a round bottom 96-well plate. 10 μL of a 10× concentration of mAb/ADC (final concentrations are indicated the figures). Wells were washed twice with FACS buffer and resuspended in 50 μL of secondary Ab (AlexaFluor 488) diluted in FACS buffer. The plate was incubated at 4° C. for one hour and washed twice with FACS buffer. Cells were resuspended in 100 μL of PBS/1% formaldehyde and analyzed on a Becton Dickinson LSRII flow cytometer. Data was analyzed using WinList flow cytometry analysis software.
(§2) Nine huAb13 variants described in Examples 17 and 18 were generated and tested for binding to B7-H3 by FACS (according to methods described in Example 6).

Experiment [5] deals with T3, hB7-H3 (ELISA antigen of Tables 17 and …). Nature of the experiment: ELISA. This is another data set of the same source.
Experiment [6] has as its target T2, Human full length B7-H3. Nature of the experiment: FACS. On the procedure:
as §1, §2

The target of experiment [7] is T3, hB7-H3 (ELISA antigen of Tables 17 and …). Nature of the experiment: ELISA; ELISA, human B7-H3; no DAR given, so unconjugated.

Where a chain is given by its changes, count along the chain named.

B1: huAb3v2.8 (antibody, V domains shown)
VH: EVQLVQSGAEVKKPGSSVKVSCKASGYTFSSYWMHWVRQAPGQGLEWIGLIHPISGSTNYNEMFKNRATLTVDRSTSTAYMELSSLRSEDTAVYYCAGGGRLYFDYWGQGTTVTVSS
VL: DIVMTQSPLSLPVTPGEPASISCRSSQSLVHSNRDTYLRWYLQKPGQSPQLLIYKVSNRFSGVPDRFSGSGSGTDFTLKISRVEAEDVGVYYCSQSTHVPYTFGGGTKVEIK
As for B1, the EC50 in experiment [1] worked out at 3.01 nM; in experiment [2] it was 3.94 nM; in experiment [3], 0.14 nM.

B2: huAb13v1 (antibody, human IgG1, kappa, L234A L235A, V domains shown)
VH: EVQLQESGPGLVKPSETLSLTCAVTGYSITSGYSWHWIRQFPGNGLEWMGYIHSSGSTNYNPSLKSRISISRDTSKNQFFLKLSSVTAADTAVYYCAGYDDYFEYWGQGTTVTVSS
VL: DIQMTQSPSSLSASVGDRVTITCKASQNVGFNVAWYQQKPGKSPKALIYSASYRYSGVPSRFSGSGSGTDFTLTISSLQPEDFAEYFCQQYNWYPFTFGQGTKLEIKR
notes: Ig gamma-1 mutant / kappa
For the molecule B2, in experiment [4], the response was half-maximal at 10 nM (EC50).

B3: huAb13v5 (antibody, V domains shown)
VH: B2 VH
VL: DIQMTQSPSSLSASVGDRVTITCKASQNVGFNVAWYQQKPGKAPKLLIYSASYRYSGVPSRFSGSGSGTDFTLTISSLQPEDFATYYCQQYNWYPFTFGQGTKLEIK
For B3, the EC50 came out at 0.19 nM in experiment [5], 10.6 nM in experiment [4] and 5.21 nM in experiment [6].

B4: huAb13v6 (antibody, V domains shown)
VH: B2 VH
VL: B3 VL with Y87F
For the molecule B4, the values for the EC50 in experiment [5], in experiment [4] and in experiment [6] were 0.14 nM, 12.9 nM and 5.83 nM, respectively.

B5: chAb13 (antibody, IgG1, V domains shown)
VH: DVQLQESGPDLVKPSQSLSLTCTVTGYSITSGYSWHWIRQFPGNKLEWMGYIHSSGSTNYNPSLKSRISINRDTSKNQFFLQLNSVTTEDTATYYCAGYDDYFEYWGQGTTLTVSS
VL: DIVMTQSQKFMSTSVGDRVSVTCKASQNVGFNVAWYQQKPGQSPKALIYSASYRYSGVPDRFTGSGSGTDFTLTISNVQSEDLAEYFCQQYNSYPFTFGSGTKLEIK
notes: chimeric, huIgG1/k
As to B5, the EC50 in experiment [7] stood at 0.26 nM; in experiment [4] it was 18.4 nM; in experiment [6], 6.27 nM.

These data come from patent US20200002421A1 (AbbVie / Abbott, published 2020).
